Reference: patent publication US20080292620A1

T1: human prolactin receptor (PRLR), full length on cells (human) (UniProt P16471)
T1 sequence: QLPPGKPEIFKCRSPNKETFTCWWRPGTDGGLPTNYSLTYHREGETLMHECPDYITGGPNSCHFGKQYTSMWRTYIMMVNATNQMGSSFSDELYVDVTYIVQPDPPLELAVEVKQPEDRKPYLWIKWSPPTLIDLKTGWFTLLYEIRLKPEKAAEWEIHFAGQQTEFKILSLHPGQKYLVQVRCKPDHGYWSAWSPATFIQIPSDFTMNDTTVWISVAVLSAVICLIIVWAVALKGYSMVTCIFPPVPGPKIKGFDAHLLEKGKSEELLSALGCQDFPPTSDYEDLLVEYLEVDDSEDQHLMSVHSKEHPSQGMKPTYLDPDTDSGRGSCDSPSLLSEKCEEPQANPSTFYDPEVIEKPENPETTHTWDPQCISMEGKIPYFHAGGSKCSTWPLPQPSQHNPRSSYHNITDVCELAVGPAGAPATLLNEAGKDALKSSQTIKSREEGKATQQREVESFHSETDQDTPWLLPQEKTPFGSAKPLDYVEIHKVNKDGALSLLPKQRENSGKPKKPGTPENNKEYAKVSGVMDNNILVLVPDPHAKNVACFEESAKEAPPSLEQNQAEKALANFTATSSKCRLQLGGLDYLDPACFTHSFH


How the values were obtained:
[1] = biological target: recombinant extracellular domain (ECD) of the human prolactin receptor (PRLR) (human) (UniProt P16471); assay: Biacore SPR, procedures similar to Table 6, PRLR ECD
[2] = biological target: recombinant extracellular domain (ECD) of the human prolactin receptor (PRLR) (human) (UniProt P16471); assay: Biacore 2000 SPR, antibody captured, PRLR ECD injected
[3] = biological target: T1, human prolactin receptor (PRLR), full length on cells (human); assay: cell-based or functional assay

Kd [1]	Kd [2]	Proliferation inhibition IC50 for BaF3/PRLR [3]	pERK1/2 inhibition IC50 (prolactin-stimulated T47D cells) [3]	Binder
0.043 nM	0.1 nM	0.1	0.11	XHA.06.983 (antibody, from another filing, V domains shown) VH: DVQLVESGGGLVQPGGSRKLSCAASGFAFSSFGMQWVRQAPEKGLEWVAYISSGSSTIYYADTVKGRFTISRDNPKNTLFLQMTSLRSEDTAMYYCVRSGRDYWGQGTSVTVSS VL: SIVMTQTPKFLLVSAGDRVTITCKASQGVSNDVAWFQQKPGQSPKLLIYSASTRYTGVPDRLTGSGYGTDFTFTINTVQAEDLAVYFCQQDYTSPTFGGGTKLEIKR
0.934 nM	–	–	–	XHA.06.642 (antibody, from another filing, V domains shown) VH: EVQLVESGGDLVKPGGSLKLSCAVSGFTFSSYGMSWVRQTPDKRLEWVATVSSGGTYTYYPDSVKGRFTISRDNAKNTLYLQMSSLKSEDSAMYYCARHRGNYYATYYYAMDYWGQGTSVTVSS VL: DIVLTQSPASLAVSLGQGATISCRASKSVSTSGYTYMHWYQQKPGQPPKLLIYLASNLESGVPARFSGSGSGTDFTLNIHPVEEEDAATYYCQHSGELPPSFGGGTKLEIKR
